± gives the uncertainty stated by the source.

The data set in a line: amyloid nucleation score (Sup35N fusion, yeast selection) (log enrichment); library NNK1; higher = more nucleation; inactive = no reads after selection. An outline of the steps:
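The nucleation score equals the log enrichment of output over input reads from DiMSum, centred on the mode score of non-aggregating sequences. It was computed only for sequences with 100 or more input reads. The reads came from Illumina sequencing of plasmid inserts from psi-negative yeast expressing Sup35N fused to peptides of 20 random codons, induced with 100 μM copper sulfate for 24 hours and grown 7 days at 30°C without adenine and uracil.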
Substance MVKYYNTQHDGVSFIEIRLL yielded an amyloid nucleation score of 0.527 ± 0.33.

MVNILIK registered an amyloid nucleation score of 0.462 ± 0.49.

Turning to MVTCGYKDFK, the amyloid nucleation score is -1.7 ± 1.5.

Substance MVTTWVHGYVWRANGQTLFR returned an amyloid nucleation score of 1.28 ± 0.7.

MVVFMYVST registered an amyloid nucleation score of 0.289 ± 0.39.

For MVVLRFAKCDSCMTSMAKIL, the amyloid nucleation score was -0.045 ± 0.3.

The substance MVVVVRTVLQVMRGR returned an amyloid nucleation score of 0.189 ± 0.76.

Turning to MWNGMAGMSQAGSCQRCS, the amyloid nucleation score is -0.287 ± 0.71.

For MWPRIPLRDPVVWEHRYCGI, the amyloid nucleation score was -0.391 ± 0.65.

MWSGLIDYMEYLLGWLCT showed an amyloid nucleation score of 0.528 ± 1.2.

Consider MWTFWFSVCTYLFL, for which the amyloid nucleation score was determined as 2.37 ± 0.2.

For the substance MWWHVSSMQDRDSGDFNGLL, the amyloid nucleation score is 0.323 ± 0.22.

For MYFCM, the amyloid nucleation score is 6.7 ± 0.059.

MYFIVCTSWGSVVDRGIH: the amyloid nucleation score result was “inactive”.

Regarding MYGCFSGGSVFSSYAALFVI, the amyloid nucleation score was -0.766 ± 0.41.

As for MYLITGKIARNAKTDSPGSN, the amyloid nucleation score is -0.52 ± 0.68.

In turn, MYSHFCVYCNFYLSCNSSLI returned an amyloid nucleation score of 7.034 ± 0.05.

MYTFN: the amyloid nucleation score was -0.031 ± 0.19.

In the case of MYTQGMYQEDSRDGNGW, the amyloid nucleation score is -0.189 ± 0.25.

Regarding MYVNSSNYDLWMNFKIVFWA, the amyloid nucleation score came out at 1.18 ± 0.25.

The substance NAACLVLGNVSSFEYSSQMG returned an amyloid nucleation score of 2.41 ± 0.27.

In turn, NACGQVLCWYL gave an amyloid nucleation score of 8.816 ± 0.058.

Regarding NADCAYYDERYRYSSWLYFY, the amyloid nucleation score is -1.2 ± 1.1.

On to NAFCHAYSI, for which the amyloid nucleation score was -1.49 ± 1.2.

NAFQRV came in with an amyloid nucleation score of 0.6 ± 0.72.

Turning to NAFSDRLTGCRLRGGMGRTS, the amyloid nucleation score is -0.526 ± 0.88.

For the substance NAGMSLRTFSLYSSWLIVPV, the amyloid nucleation score was 0.179 ± 1.

Take NAIGILRHLTRMFPFD: the amyloid nucleation score stood at 0.747 ± 0.44.

On to NAMVDGQGILIHSL, for which the amyloid nucleation score result is “inactive”.

Consider NARPYRPSFILQSL, for which the amyloid nucleation score was -0.698 ± 0.54.

Turning to NARWSGISFQC, the amyloid nucleation score is -0.115 ± 0.87.

Take NASCFADKPLLCSLTGRVMD: the amyloid nucleation score is -0.043 ± 0.49.

For the substance NCDDIYKYMVIVQGSQLFI, the amyloid nucleation score is -0.211 ± 0.32.

The substance NCHSSFYGNDIGGLSHVMCL came in with an amyloid nucleation score of 1.89 ± 0.7.

Take NCNIMNFIDTCLCGAMYYFR: the amyloid nucleation score turned out to be 4.12 ± 0.078.

NCTRWTLNTDVCSLDRHVPH: the amyloid nucleation score was -0.5 ± 2.1.

With NDLAKHLGFTVTF, the amyloid nucleation score was 0.011 ± 0.28.

As to NDTMWMSSGLSPCVSSPSLG, the amyloid nucleation score was -0.252 ± 1.4.

As to NDVFEHIITFCILRVYHMFC, the amyloid nucleation score was -0.577 ± 0.3.

As to NDYYCFHRAIFFDTGMYFSN, the amyloid nucleation score was -0.009 ± 0.41.

In turn, NECLWSSFYLIICFLVCYYY returned an amyloid nucleation score of 0.278 ± 0.46.

Turning to NEVMRFLSTCCMWIIHTSKV, the amyloid nucleation score result is “inactive”.

Take NFFYT: the amyloid nucleation score was -0.758 ± 1.1.

Regarding NFGLPMYYFANDLESTDVVS, the amyloid nucleation score is -0.115 ± 1.4.

For the substance NFKNRPSRLSRSNRSLFSTG, the amyloid nucleation score is -0.887 ± 0.85.

NFLLTRPAAHELC: the amyloid nucleation score result was “inactive”.

Consider NFLPVLVCQPLSWLLIPLLY, for which the amyloid nucleation score amounted to 0.309 ± 0.31.

NFMIMKSCDRSSLCHFMSYC registered an amyloid nucleation score of 7.436 ± 0.069.

In turn, NFNRRRLCIIMKFDDPPLHG came in with an amyloid nucleation score of 0.102 ± 0.24.

Turning to NFRAWS, the amyloid nucleation score is 0.129 ± 0.93.

Take NFRHFILVYLMPFT: the amyloid nucleation score result was “inactive”.

As for NFRLEYDLCVGLTSSHIGGL, the amyloid nucleation score was -0.219 ± 0.48.

For NFSYMLLLAPSKVTRAGCFV, the amyloid nucleation score was -0.134 ± 1.3.

NGFLHIRLRISALCELL yielded an amyloid nucleation score of 0.137 ± 0.57.

NGFSYVCFNGFQLMCLDSIM gave an amyloid nucleation score of 7.779 ± 0.044.

With NGHHALLYMPFAQTC, the amyloid nucleation score is -0.745 ± 1.2.

Consider NGLFIRYSVVMAYSELEVVG, for which the amyloid nucleation score is -0.162 ± 0.7.

The values are drawn from the supplement of paper PMC12042874.
